From patent US20260250420A1 (SICHUAN KELUN BIOTECH BIOPHARMACEUTICAL, published 2026)
Blank lines part the entries; values can stand above or below the binder they belong to.

Columns and labels:
[1] = biological target: T1, human PTK7 on cells (tumor cells endogenously expressing PTK7); CHO-hPTK7, CHO-S-hPTK7 and 293T-hPTK7 … (human, UniProt Q13308 31-1070); assay: cell-based or functional assay
T1 sequence (looked up): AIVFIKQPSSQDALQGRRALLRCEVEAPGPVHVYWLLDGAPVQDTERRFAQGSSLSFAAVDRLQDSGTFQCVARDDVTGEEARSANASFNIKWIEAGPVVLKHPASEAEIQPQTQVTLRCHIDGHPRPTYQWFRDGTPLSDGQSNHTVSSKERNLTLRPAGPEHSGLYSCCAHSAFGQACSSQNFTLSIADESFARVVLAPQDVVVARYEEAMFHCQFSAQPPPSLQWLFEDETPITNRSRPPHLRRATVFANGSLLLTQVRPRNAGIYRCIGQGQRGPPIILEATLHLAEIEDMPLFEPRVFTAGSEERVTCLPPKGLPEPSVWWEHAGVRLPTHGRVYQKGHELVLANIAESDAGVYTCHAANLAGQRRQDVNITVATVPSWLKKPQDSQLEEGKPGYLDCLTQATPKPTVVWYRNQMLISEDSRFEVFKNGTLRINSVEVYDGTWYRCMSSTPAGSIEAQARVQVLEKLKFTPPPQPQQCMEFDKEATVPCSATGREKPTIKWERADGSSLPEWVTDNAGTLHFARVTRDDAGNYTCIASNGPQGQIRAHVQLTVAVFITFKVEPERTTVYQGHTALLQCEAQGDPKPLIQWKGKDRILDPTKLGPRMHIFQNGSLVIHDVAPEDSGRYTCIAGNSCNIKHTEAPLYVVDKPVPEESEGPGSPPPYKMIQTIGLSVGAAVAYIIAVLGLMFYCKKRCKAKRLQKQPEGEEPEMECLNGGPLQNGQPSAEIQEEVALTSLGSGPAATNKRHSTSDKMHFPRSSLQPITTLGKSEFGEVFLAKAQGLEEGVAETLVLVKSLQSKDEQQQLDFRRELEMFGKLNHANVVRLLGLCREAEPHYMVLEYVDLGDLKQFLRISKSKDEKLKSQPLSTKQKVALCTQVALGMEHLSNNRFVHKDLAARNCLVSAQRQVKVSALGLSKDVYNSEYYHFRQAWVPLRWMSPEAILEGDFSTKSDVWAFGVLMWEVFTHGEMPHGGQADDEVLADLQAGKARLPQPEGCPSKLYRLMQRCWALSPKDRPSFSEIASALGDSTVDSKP

[2] = biological target: T2, human Fc receptor protein CD16a (human, UniProt P08637 17-208, biotinylated); assay: BLI (ForteBio), biotinylated receptor on SA sensor, antibody from 5,000 nM, 1:1 global fit
T2 construct: Biotinylated protein captured on SA sensors
T2 sequence (P08637 17-208 limits assumed): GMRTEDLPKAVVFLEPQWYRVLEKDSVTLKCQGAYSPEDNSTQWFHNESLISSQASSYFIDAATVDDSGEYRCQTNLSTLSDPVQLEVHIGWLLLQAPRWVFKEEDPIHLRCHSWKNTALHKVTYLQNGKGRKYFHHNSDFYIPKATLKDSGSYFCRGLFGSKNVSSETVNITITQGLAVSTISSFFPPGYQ
From the text: (§1) The dynamic affinity of the antibodies 101A6HZ, 101A6HZm and Hu24 with human Fc receptor proteins CD16a, CD32a, CD32b, CD64 and FcRn was detected through ForteBio (Pall life sciences).

[3] = biological target: T3, human Fc receptor protein CD64 (human, UniProt P12314 16-292, limits assumed, biotinylated); assay: as above
T3 construct: Biotinylated protein captured on SA sensors
T3 sequence (P12314 16-292 limits assumed): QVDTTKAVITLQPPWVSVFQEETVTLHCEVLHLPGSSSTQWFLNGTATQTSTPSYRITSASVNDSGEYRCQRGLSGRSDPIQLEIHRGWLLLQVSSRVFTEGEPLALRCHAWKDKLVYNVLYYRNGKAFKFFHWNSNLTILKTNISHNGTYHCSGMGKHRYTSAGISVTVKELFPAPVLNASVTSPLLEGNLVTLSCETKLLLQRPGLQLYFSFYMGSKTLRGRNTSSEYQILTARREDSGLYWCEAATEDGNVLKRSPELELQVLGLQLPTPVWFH
From the text: as §1

[4] = biological target: T4, mouse PTK7 protein (extracellular sequence of mouse PTK7 with C-terminal 6×His tag) (mouse, UniProt Q8BKG3 23-696); assay: ELISA, coated mouse PTK7 protein
T4 construct: extracellular domain; Expressed transiently in HEK293 cells
T4 sequence: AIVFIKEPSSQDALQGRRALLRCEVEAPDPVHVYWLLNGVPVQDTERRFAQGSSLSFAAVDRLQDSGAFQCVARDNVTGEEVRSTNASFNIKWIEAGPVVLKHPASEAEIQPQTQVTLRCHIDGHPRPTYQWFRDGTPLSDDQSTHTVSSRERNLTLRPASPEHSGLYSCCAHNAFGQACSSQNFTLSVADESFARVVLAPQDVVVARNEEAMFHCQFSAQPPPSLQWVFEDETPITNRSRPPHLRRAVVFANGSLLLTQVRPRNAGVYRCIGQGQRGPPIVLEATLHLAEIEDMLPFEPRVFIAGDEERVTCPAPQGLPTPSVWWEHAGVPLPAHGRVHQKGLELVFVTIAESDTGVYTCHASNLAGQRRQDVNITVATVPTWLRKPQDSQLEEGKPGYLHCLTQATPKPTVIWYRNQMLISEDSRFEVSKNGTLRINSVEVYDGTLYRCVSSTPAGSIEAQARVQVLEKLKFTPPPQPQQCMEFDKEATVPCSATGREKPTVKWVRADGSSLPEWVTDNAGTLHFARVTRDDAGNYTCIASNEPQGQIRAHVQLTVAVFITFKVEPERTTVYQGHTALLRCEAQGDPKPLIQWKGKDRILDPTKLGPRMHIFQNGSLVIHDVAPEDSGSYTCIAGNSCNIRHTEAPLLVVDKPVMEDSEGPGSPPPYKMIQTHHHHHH
Method: Original data was imported into software for nonlinear curve fitting, and EC₅₀ of binding of each antibody to human PTK7 and monkey PTK7 was calculated, respectively. As shown in Table 1 and FIGS. 1A-1B, the screened antibodies could be bound to the human and monkey PTK7 proteins with affinity higher than that of the control antibody Hu24.
ELISA and ForteBio were adopted to detect binding of the anti-human PTK7 chimeric and humanized antibodies to the monkey, mouse and rat PTK7 proteins.

[5] = biological target: T1, human PTK7 on cells (tumor cells …); assay: competition flow cytometry on 293T-hPTK7 cells, streptavidin-PE; competitor: biotin-labelled 64A10HZ

Cell endocytosis, EC50, A431 cells [1]: 0.0743 µg/mL
Cell endocytosis, EC50, HCC1806 cells [1]: 0.0659 µg/mL
Cell endocytosis, EC50, NCI-H358 cells [1]: 0.0708 µg/mL
Cell endocytosis, EC50, OVCAR3 cells [1]: 0.101 µg/mL
Kd [2]: 1190 nM
Kd [3]: 0.465 nM
B1: Hu24 (PTK7 control antibody, taken from Hu24 in the Patent CN201580030255) (antibody)
chain 1: QVQLVQSGPEVKKPGASVKVSCKASGYTFTDYAVHWVRQAPGKRLEWIGVISTYNDYTYNNQDFKGRVTMTRDTSASTAYMELSRLRSEDTAVYYCARGNSYFYALDYWGQGTSVTVSS
chain 2: EIVLTQSPATLSLSPGERATLSCRASESVDSYGKSFMHWYQQKPGQAPRLLIYRASNLESGIPARFSGSGSGTDFTLTISSLEPEDFAVYYCQQSNEDPWTFGGGTKLEIK

Kd [2]: 1010 nM
Kd [3]: 0.508 nM
B2: 101A6HZ (anti-human PTK7 humanized antibody) (antibody, human IgG1, kappa)
heavy: not shown
light: DIVMTQSPDSLAVSLGERATINCKASQDVGSAVIWYQQKPGQSPKLLIYWASTRHTGVPDRFSGSGSGTDFTLTISSLQAEDVAVYYCQQYSSYPLTFGQGTKLEIKRTVAAPSVFIFPPSDEQLKSGTASVVCLLNNFYPREAKVQWKVDNALQSGNSQESVTEQDSKDSTYSLSSTLTLSKADYEKHKVYACEVTHQGLSSPVTKSFNRGEC

binding result [4]: no binding
IC50 (read off the curve) [5]: ~0.3 µg/mL
B3: 64A10HZ (anti-human PTK7 humanized antibody) (antibody, human IgG1, kappa, V domains shown)
VH: QVQLQESGPGLVKPSETLSLTCTVSGFSLTSYGVYWVRQPPGKGPEWLGVIWTSGNTNYNPSLKSRLTISKDNSKNQVSLKLSSVTAADTAVYYCVKHDGGNYVGVMNYWGQGTLVTVSS
VL: EIVMTQSPDFQSVTPKEKVTITCRASQSISDYLHWYQQKPDQSPKLLIKYASQSISGVPSRFSGSGSGSDFTLTINSLEAEDAATYYCQNGHSFPPTFGQGTKLEIKR
notes: Human IgG1 heavy chain constant region and human Kappa light chain constant region; expressed in CHO-S cells
